Laboratory results from patent US12296018B2, “Albumin binding peptide-drug (AlBiPeD) conjugates and methods of making and using same” (priority 2018, dated 2025).
Where “and” joins values, the source holds several entries; their conditions need not be identical. Identical values can stand only once. Entries after “also recorded” stand apart in the source; their conditions may differ.

Legend:
[1] = molecular target: T1, mouse serum albumin (MSA) (Mus musculus, UniProt P07724); test: Isothermal titration calorimetry of ABD-Dox with MSA; format: binding; conditions: ITC, 37° C., PBS
T1 construct: purchased Sigma-Aldrich (St. Louis, MO)
Description: (§1) The gel was stained with SimplyBlue stain according to the manufacturer's instructions and imaged using the Gel Doc imaging system (Bio-Rad, Hercules, CA). Isothermal titration calorimetry was done using a standard volume Nano ITC from TA instruments (Lindon, Utah). […] The calorimetric data were analyzed by NanoAnalyze software (TA instruments, Lindon, UT) and were fit to an independent binding site model to compute the thermodynamic parameters including dissociation constant (KD), binding stoichiometry (n), enthalpy (ΔH), and entropy (ΔS).

[2] = molecular target: T2, human serum albumin (HSA) (Homo sapiens, UniProt P02768); test: Native-PAGE mobility shift with HSA; format: binding; conditions: 1:1 molar ratio
T2 construct: purchased Sigma-Aldrich (St. Louis, MO)
Description: as §1

MIA PaCa-2 cells = test: In vitro cytotoxicity (MTS, 72 h) MIA PaCa-2; format: cell-based, human; conditions: 72 h incubation, Dox Equiv. concentration
Description: In vitro cytotoxicity C26 murine colon carcinoma cells and three different pancreatic cancer cell lines, BxPC-3, AsPC-1, and MIA PaCa-2, were used to study the in vitro cytotoxicity of ABD-DOX and Dox. Cells were cultured and grown as monolayers at 37° C. with C02 in a humidified incubator and were passaged at ˜80% confluency using 0.05% trypsin-EDTA (Invitrogen, Carlsbad, CA). C26, BxPC-3, AsPC-1, and MIA PaCa-2 cells were seeded in 96-well plates (5,000 cells/well) and incubated overnight. Three-fold serial dilutions of drug were then added to the wells in triplicate and also to control wells (media with no cells) to correct for the background Dox absorbance. After 72 h treatment, 20 μL MTS reagent was added to each well and was incubated for 3 h at 37° C., and the absorbance at 490 nm was measured using a Victor3 plate reader (Perkin Elmer, Boston, MA). Cell viability (%) was defined as the percentage of the absorbance of the drug-treated cells relative to buffer-treated cells and IC50 values were determined using logistic non-linear regression analysis with GraphPad Prism software. The IC50 was defined as the Dox Equiv. concentration of formulations resulting in 50% growth inhibition compared with a negative control, buffer-treated cells.

[3] = Tissue biodistribution in C26 tumor-bearing BALB/c mice; format: in vivo
Source text: The tissue concentration of Dox.

[4] = pH-dependent Dox release from ABD-Dox conjugate (size exclusion HPLC); format: physicochemical
Description: Drug release Dox release from the ABD-Dox conjugate was measured at pH 7.4 and 5.0, corresponding to the physiological pH and late endosomal pH, respectively. ABD-Dox in PBS (400 μM Dox Equiv.) was diluted with an equal volume of either 0.1 M Na—PO4, pH 7.4 buffer, 0.1 M Na-acetate, pH 5.0 buffer, incubated at 37° C. for 0, 0.25, 0.5, 1, 2, 4, 6, and 24 h, and neutralized using an equal volume of 0.1 M Na—PO4, pH 7.4 buffer. Samples were then analyzed by size exclusion HPLC using the same chromatography conditions as described above for the characterization of Dox conjugates and the percentage of released Dox was calculated by integrating the area under the peak corresponding to unbound Dox. The cumulative percent released Dox (F %, released) versus time was fit to a first order release model: F %, released=a[1−exp(−ln(2)t/t1/2)] where t is the time (h) after incubation, tia is the half-maximal release time (h), and a (%) is the maximum extent of drug release, using GraphPad Prism software (GraphPad, San Diego, CA).

[5] = Dose-escalation study, maximum tolerated dose; format: in vivo, BALB/c mice
Description: With these encouraging biodistribution results in hand, tumor regression in vivo by ABD-Dox was investigated. The maximum tolerated dose (MTD) of ABD-Dox was established in healthy mice. A range of doses of ABD-Dox were injected into healthy BALB/c mice, and body weight loss and mortality of the mice were monitored over a two-week period to assess systemic toxicity. […] Using these criteria, the MTD was determined to be 20 mg Dox Equiv.kg^−1 for ABD-Dox (FIG. 7) and 10 mgkg^−1 BW MTD of free Dox (FIG. 8).

T1 sequence (P07724 25-608): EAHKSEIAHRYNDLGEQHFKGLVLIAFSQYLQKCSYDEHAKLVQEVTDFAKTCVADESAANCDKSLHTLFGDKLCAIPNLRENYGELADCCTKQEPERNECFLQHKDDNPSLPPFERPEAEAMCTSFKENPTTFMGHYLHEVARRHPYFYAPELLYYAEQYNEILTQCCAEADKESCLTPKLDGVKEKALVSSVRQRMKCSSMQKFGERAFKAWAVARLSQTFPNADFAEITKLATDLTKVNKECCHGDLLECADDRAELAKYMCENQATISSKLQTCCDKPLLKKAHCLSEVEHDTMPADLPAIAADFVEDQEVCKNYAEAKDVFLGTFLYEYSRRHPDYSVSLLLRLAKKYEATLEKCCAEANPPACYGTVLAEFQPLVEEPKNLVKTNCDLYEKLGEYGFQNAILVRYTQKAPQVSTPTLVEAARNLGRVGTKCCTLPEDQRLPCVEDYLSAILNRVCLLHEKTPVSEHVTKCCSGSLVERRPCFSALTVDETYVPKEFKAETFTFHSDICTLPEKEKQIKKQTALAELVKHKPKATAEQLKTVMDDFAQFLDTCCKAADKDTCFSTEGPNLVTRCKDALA

## ABD-Dox (GLAEAKVLANRELDKYGVSDYYKNLINNAKTVEGVKALIDEILAALPCGGCGGCGGCGG)
[1]
  ΔH: -18.6 kJ/mol
  ΔS: 76.6 Jmol^−1K^−1
[1]; independent binding site model
  n (binding stoichiometry): 0.94 and 0.9
[2]
  binding to HSA by mobility shift: confirmed binding
MIA PaCa-2 cells
  IC50: 1.4 µM and 1.41 µM
[3]; 2 to 72 h
  AUC in other tissues compared to free Dox: No significant difference
  AUC in the spleen, lower than free Dox: ~50%
  AUC in the tumor, fold greater than free Dox: 16 fold
[3]; 2 h
  concentration in kidneys compared to free Dox: lower concentration
  concentration in liver compared to free Dox: lower concentration
  concentration in muscle compared to free Dox: lower concentration
  concentration in spleen compared to free Dox: lower concentration
[3]; 24 h
  concentration in heart compared to free Dox: higher concentration
  concentration in liver compared to free Dox: higher concentration
  concentration in lungs compared to free Dox: higher concentration
  concentration in muscle compared to free Dox: higher concentration
  concentration in spleen compared to free Dox: lower concentration
[3]; 72 h
  accumulation in kidneys compared to free Dox: higher
  accumulation in liver compared to free Dox: higher
  accumulation in lungs compared to free Dox: higher
  accumulation in muscle compared to free Dox: higher
  tumor accumulation, fold greater than free Dox: ~120 fold
[4]; pH 5.0, over 24 h, 37° C.
  drug released: about 70%
[4]; pH 7.4, 37° C.
  Dox release: negligible; also recorded: low, basal level of release
[5]; i.v., healthy BALB/c mice, two weeks, no mortality or body weight loss greater than 15%
  maximum tolerated dose (MTD): 20 mg Dox Equiv.kg^−1
[5]; mouse, in vivo
  maximum tolerated dose, fold higher than free drug: 2 fold
